In assay [1] the target is T1, cyno PRLR (Biacore antigen) (cyno, UniProt A0A2K5WXK1 25-234).
T1 construct: also called cyPRLR
T1 sequence: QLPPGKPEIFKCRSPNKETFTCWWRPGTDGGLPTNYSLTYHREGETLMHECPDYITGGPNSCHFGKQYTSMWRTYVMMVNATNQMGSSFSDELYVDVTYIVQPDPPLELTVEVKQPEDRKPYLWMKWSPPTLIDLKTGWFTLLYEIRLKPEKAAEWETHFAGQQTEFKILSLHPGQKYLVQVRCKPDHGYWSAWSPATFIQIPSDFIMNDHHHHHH
Briefly: SPR Biacore. The essentials: (§1)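 Association rate, dissociation rate and dissociation constant were measured by surface plasmon resonance on a Biacore instrument. PRLR antigen was tested at 600 nM, 66.67 nM and 7.41 nM, a 3-point, 9-fold dilution series. Constants came from a 1:1 binding model fit (local Rmax, mass-transport term included) in Biacore T200 Evaluation Software.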
(Surface plasmon resonance follows binding to a sensor surface in real time, without labels.)

Assay [2] has as its target T2, murine PRLR (Biacore antigen) (murine, UniProt Q08501 20-229, limits assumed).
T2 construct: also called muPRLR
T2 sequence (looked up): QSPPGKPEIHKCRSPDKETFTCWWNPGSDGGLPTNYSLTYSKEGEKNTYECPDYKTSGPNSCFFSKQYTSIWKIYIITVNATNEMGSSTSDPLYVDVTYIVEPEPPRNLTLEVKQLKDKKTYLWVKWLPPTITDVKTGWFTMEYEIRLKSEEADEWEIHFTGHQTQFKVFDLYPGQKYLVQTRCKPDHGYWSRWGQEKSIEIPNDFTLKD
In words: SPR Biacore. The essentials:
as §1

Assay [3] deals with T3, human PRLR (Biacore antigen) (human, UniProt P16471 25-234, limits assumed).
T3 construct: The construct injected over captured antibody is not described (a soluble form is likely); also called huPRLR
T3 sequence: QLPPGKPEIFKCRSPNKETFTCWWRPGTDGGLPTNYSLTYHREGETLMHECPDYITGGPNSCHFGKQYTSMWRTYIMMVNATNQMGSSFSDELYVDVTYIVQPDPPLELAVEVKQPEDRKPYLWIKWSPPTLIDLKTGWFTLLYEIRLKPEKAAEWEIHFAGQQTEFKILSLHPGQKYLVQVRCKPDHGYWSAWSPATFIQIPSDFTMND
Briefly: SPR Biacore. The essentials: as §1

Assay [4] has as its target T4, mouse PRLR on Baf3-mPRLR cells (mouse, UniProt Q08501 20-608).
T4 sequence (looked up): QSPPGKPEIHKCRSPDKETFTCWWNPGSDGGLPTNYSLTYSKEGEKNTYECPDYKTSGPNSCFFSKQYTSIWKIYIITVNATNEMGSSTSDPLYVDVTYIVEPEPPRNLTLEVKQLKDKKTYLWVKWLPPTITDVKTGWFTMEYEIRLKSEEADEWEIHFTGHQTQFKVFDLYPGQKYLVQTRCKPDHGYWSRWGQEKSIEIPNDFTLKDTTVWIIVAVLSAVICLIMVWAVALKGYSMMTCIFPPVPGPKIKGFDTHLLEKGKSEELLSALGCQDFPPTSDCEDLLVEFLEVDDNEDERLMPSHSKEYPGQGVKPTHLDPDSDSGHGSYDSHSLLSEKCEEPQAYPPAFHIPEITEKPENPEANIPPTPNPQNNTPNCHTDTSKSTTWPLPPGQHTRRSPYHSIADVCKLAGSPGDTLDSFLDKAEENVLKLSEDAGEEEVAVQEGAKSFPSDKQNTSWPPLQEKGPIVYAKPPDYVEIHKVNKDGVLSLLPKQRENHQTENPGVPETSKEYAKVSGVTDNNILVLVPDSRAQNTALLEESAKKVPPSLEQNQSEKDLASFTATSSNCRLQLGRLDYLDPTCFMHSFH
In words: cell-based or functional assay.

The target in another assay is T5, human PRLR on cells (human, UniProt P16471 25-622).
T5 sequence: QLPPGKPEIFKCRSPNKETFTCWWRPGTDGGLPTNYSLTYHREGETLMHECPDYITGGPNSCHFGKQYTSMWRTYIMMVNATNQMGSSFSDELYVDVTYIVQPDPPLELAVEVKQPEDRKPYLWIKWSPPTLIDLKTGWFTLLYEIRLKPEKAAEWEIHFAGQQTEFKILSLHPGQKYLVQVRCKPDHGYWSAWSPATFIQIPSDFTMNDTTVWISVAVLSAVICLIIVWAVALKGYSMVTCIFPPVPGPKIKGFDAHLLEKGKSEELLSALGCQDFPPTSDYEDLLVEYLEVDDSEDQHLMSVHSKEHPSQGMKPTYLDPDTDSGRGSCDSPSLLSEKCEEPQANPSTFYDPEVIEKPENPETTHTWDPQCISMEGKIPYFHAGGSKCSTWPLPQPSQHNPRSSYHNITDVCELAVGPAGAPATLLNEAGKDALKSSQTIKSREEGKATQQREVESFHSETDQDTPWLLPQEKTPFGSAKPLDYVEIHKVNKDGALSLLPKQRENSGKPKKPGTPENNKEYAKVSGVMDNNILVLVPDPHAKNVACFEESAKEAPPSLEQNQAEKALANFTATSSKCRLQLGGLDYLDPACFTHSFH
Briefly: cell-based or functional assay.

A value given as a limit tells only on which side of the number the result lay.

B1: Ab5 (antibody, V domains shown)
VH: QVQLQQPGAELVRPGTSVKLSCKASGYTFTSFWMHWVKQRPGQGLEWIGVIDPSDTYTNYNQKFKGKATLTVDTSSSTAYMQLSSLTSEDSAVYYCARGDYSNWFTYWGQGTLVTVSA
VL: DVVMTQTPLSLPVSLGDQASISCRSSQRLVHSNGNTYLHWYLQKPGQSPKLLIYKVSNRFSGVPDRFSGSGSGTDFTLKISRVEAEDLGVYFCSQSTHVPWTFGGGTKLEIK
notes: murine monoclonal, isotype G2a; also called murine Ab5
Broadly, the Kd is the constant that tells how readily two partners part at equilibrium. Low values mean tighter binding, high ones weaker binding. One may read the koff as the first-order rate constant of dissociation. The low end stands for a long-lived complex, the high end for a short-lived complex. By kon is commonly meant the rate constant with which the complex forms. A lower kon goes with slower complex formation. In assay [1], B1 yielded a dissociation constant (Kd) of 0.7 nM, a koff of 0.000235 s⁻¹ and a kon of 336000 M⁻¹ s⁻¹. In assay [2], this molecule returned a Kd of 14.4 nM, a koff of 0.00291 s⁻¹ and a kon of 202000 M⁻¹ s⁻¹. In assay [3], this molecule yielded a Kd of 0.572 nM, a koff of 0.000203 s⁻¹ and a kon of 355000 M⁻¹ s⁻¹. The “Baf3-mPRLR proliferation IC50” value in assay [4] was found to be 1.03 µg/mL. Further, in the assay with human PRLR on cells, the “Baf3-hPRLR proliferation IC50” value was found to be 0.24 µg/mL and the “T47D pPRLR ELISA IC50” value is 0.038 µg/mL.

B2: Ab7 (antibody, V domains shown)
VH: QVQLQQPGAELVMPGTSVKLSCKASGYTFTSYWIHWVKQRPGQGLEWIGEIDPSDSYTNYNQKFKGKATLTVDRSSSTAYMQLSSLTSEDSAVYYCGRSFFTNWFAYWGQGTLVTVSA
VL: DVVMTQTPLSLPVSLGDQASISCRSSQSLVHSNGNTYLHWYLQKPGQSPKLLIYKVSNRFSGVPDRFSGSGSGTDFTLKINRVEAEDLGVYFCSQSTHVPFTFGSGTKLEIK
notes: murine monoclonal, isotype G1; also called murine Ab7
B2: in assay [1], the affinity, expressed as Kd, was 0.127 nM; the koff stood at 3.29e-05 s⁻¹; the kon turned out to be 259000 M⁻¹ s⁻¹. In assay [2], this molecule yielded a Kd of 41.7 nM, a koff of 0.0035 s⁻¹ and a kon of 84000 M⁻¹ s⁻¹. Moreover, in assay [3], the Kd is 0.153 nM, the koff worked out at 4.27e-05 s⁻¹ and the kon came out at 280000 M⁻¹ s⁻¹. In addition, in assay [4], the “Baf3-mPRLR proliferation IC50” value was 3.55 µg/mL. In the assay with human PRLR on cells, the “Baf3-hPRLR proliferation IC50” value was found to be 0.28 µg/mL and the “T47D pPRLR ELISA IC50” value turned out to be 0.08 µg/mL.

B3: Ab6 (antibody, V domains shown)
VH: QVQLQQPGAELVMPGSSVKLSCKASGYTFTTYWMHWVKQRPGQGLEWIGEIDPSDSYSNYNQKFKDKATLTVDKSSSTAYMQLSSLTSEDSAVYYCARNGGLGPAWFSYWGQGTLVTVSA
VL: DIVMTQSQKFMSTTVGDRVSITCKASQYVGTAVAWYQQKPGQSPKLLIYSASNRYTGVPDRFTDSGSGTDFTLTISNLQSEDLADYFCQQYSSYPWTFGGGTKLEIK
notes: murine monoclonal, isotype G1; also called murine Ab6
Consider B3, for which, in assay [1], binding was characterised by a dissociation constant (Kd) of 0.807 nM, the koff is 0.00109 s⁻¹ and the kon amounted to 1.36e+06 M⁻¹ s⁻¹. In assay [2], this molecule came in with a Kd of 635 nM, a koff of 0.394 s⁻¹ and a kon of 622000 M⁻¹ s⁻¹. In assay [3], this molecule gave a Kd of 0.45 nM, a koff of 0.000576 s⁻¹ and an on-rate constant (kon) of 1.28e+06 M⁻¹ s⁻¹. Moreover, the “Baf3-mPRLR proliferation IC50” value in assay [4] is greater than 30 µg/mL. Besides, in the assay with human PRLR on cells, the “Baf3-hPRLR proliferation IC50” value was determined as 0.26 µg/mL and the “T47D pPRLR ELISA IC50” value came out at 0.039 µg/mL.

Values taken from US20170022281A1 (AbbVie / Abbott, published 2017).
